Numbering of substitutions follows the chain as printed. Each block holds one binder with its values, some of them ahead of it.
Columns and labels:
FcγRIIaH = biological target: T1, FcγRIIaH (human, UniProt P12318); experiment: SPR
T1 chain: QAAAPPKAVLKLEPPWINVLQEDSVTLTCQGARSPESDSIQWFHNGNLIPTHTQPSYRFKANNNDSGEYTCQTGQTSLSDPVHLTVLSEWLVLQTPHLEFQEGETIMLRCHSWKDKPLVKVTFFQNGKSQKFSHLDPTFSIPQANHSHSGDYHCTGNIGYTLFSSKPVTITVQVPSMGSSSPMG

FcγRIa = biological target: T2, FcγRIa (human, UniProt P12314); experiment: SPR
T2 chain: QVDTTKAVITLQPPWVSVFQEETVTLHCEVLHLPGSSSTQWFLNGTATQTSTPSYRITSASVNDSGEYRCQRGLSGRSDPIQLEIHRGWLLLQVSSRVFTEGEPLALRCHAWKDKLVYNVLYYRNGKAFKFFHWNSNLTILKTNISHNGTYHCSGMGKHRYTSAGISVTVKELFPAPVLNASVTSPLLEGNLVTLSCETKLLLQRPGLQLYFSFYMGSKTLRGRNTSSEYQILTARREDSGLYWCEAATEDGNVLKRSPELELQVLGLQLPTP

Kd (FcγRIIaH): 1800 nM
B1: IL6R-BP507/IL6R-L (antibody)
chain 1: QVQLQESGPGLVKPSETLSLTCAVSGHSISHDHAWSWVRQPPGEGLEWIGFISYSGITNYNPSLQGRVTISRDNSKNTLYLQMNSLRAEDTAVYYCARSLARTTAMDYWGEGTLVTVSSASTKGPSVFPLAPSSKSTSGGTAALGCLVKDYFPEPVTVSWNSGALTSGVHTFPAVLQSSGLYSLSSVVTVPSSSLGTQTYICNVNHKPSNTKVDKKVEPKSCDKTHTCPPCPAPDLLGDDSVFLFPPKPKDTLMISRTPEVTCVVIDVAEEDGPVKFNWYVDGVEVHNAKTKPREEQYNSTYRVVSVLTVLHQDWLNGKEYKCKVSNKALPRPIEKTISKAKGQPREPQVYTLPPSRDELTKNQVSLTCLVKGFYPSDIAVEWESNGQPENNYKTTPPVLDSDGSFFLYSKLTVDKSRWQQGNVFSCSVMHEALHNHYTQESLSLSP
chain 2: not shown

Kd (FcγRIIaH): 2400 nM
B3: IL6R-BP490/IL6R-L (antibody)
chain 1: B1 chain 1 with D235E, P274E
chain 2: not shown

Kd (FcγRIIaH): 1500 nM
B4: IL6R-BP445/IL6R-L (antibody)
chain 1: B1 chain 1 with P274E
chain 2: not shown

The remaining lines, values behind:

B2: IL6R-BP480/IL6R-L (antibody)
chain 1: B1 chain 1 with I266V, V268L, A269S, E271D, P274E, R332A
chain 2: not shown
Kd (FcγRIa): 13 nM

B5: IL6R-BP506/IL6R-L (antibody)
chain 1: B1 chain 1 with Y298D
chain 2: not shown
Kd (FcγRIIaH): 2500 nM

From patent US20190185557 (published 2019)
